Reference: paper PMC10576089, “Integrative solution structure of PTBP1-IRES complex reveals strong compaction and ordering with residual conformational flexibility”

Legend:
PTBP1 (hnRNP I) = PTBP1 (hnRNP I) (UniProt P26599-1 1-531, C250S;C251S); test: NMR; SAXS/SANS; CLIR-MS/MS; integrative structure; ensemble in Zenodo 10.5281/zenodo.7798970; NMR/SANS: 10 mM NaPO4 pH 6.5, 20 mM NaCl, 1-2 mM DTT; protein NMR at 313/323 K, imino spectra 278-293 K; DEER 1:1 d8-glycerol at 50 K; SAS 23 C; conditions: protein: recombinant; stem-loops D, E and F with single-stranded linkers
Sequence of PTBP1 (hnRNP I) (P26599 other isoform, or with tags, fused parts or gaps C250S;C251S): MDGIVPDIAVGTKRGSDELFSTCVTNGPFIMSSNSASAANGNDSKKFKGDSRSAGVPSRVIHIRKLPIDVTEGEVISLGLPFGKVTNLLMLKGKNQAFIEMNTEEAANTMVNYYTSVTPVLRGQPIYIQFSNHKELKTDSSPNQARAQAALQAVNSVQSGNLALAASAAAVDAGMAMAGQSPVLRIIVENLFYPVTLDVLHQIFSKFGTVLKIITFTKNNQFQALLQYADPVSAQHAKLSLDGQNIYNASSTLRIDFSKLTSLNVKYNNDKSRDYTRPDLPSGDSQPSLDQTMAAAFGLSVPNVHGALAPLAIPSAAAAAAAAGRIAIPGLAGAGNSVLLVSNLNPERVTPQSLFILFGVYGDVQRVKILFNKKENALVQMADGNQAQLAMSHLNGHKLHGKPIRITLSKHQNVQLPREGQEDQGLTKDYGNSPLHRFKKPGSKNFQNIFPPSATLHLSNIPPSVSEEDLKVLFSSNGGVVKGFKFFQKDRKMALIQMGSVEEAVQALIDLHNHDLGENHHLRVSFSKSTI

PTBP1 RRM1 = PTBP1 RRM1 (UniProt P26599-1 41-163); test: NMR (intermolecular NOEs); binding register confirmed; NMR/SANS: 10 mM NaPO4 pH 6.5, 20 mM NaCl, 1-2 mM DTT; protein NMR at 313/323 K, imino spectra 278-293 K; DEER 1:1 d8-glycerol at 50 K; SAS 23 C; conditions: protein: recombinant; hairpin
Sequence of PTBP1 RRM1 (P26599 41-163): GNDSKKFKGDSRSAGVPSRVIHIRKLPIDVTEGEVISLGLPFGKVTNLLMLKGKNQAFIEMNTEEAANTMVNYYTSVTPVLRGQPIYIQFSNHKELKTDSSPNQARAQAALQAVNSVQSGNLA

B1: EMCV-IRES-DtoF (structured_RNA)
RNA: UACUGGCCGAAGCCGCUUGGAAUAAGGCCGGUGUGCGUUUGUCUAUAUGUUAUUUUCCACCAUAUUGCCGUCUUUUGGCAAUGUG
PTBP1 (hnRNP I)
  binding result: binds

## GGAGCGUUUGUCUAUAUGUUCC (structured_RNA) [SLE]
PTBP1 RRM1
  binding result: binds
